Data set [1] can be described thus: Stability of reconstituted [18F]-FPPEGA in 1×PBS buffer. It counts as physicochemical. The following applies: 100% 1×PBS buffer, 37° C. The procedure: An aqueous [^18F]-Fluoride solution (2.0 ml, 33.3 GBq/900 mCi) was purchased from P.E.T. Net® Pharmaceuticals in West Point Pa. and directly transferred to a Sep-Pak light QMA [The Sep-Pak light QMA cartridge was pre-conditioned sequentially with 5 ml of 0.5 M potassium bicarbonate, 5 ml of deionized water, and 5 ml of MeCN before use.] Upon completion of this transfer, the aqueous [^18F] fluoride was released from the QMA Sep-Pak by the sequential addition of potassium carbonate (15 mg/ml; 0.1 ml) followed by a mixture of potassium carbonate (30 mg/ml, 0.1 ml), 4,7,13,16,21,24-hexaoxa-1,10-diazabicyclo[8.8.8]hexacosane (15 mg, 0.04 mmol) and 1.2 ml of MeCN. The solvent was evaporated under a gentle stream of nitrogen at 90° C. and vacuum. Azeotropic drying was repeated twice with 1 ml portions of acetonitrile to generate the anhydrous K.2.2.2/K[^18F]F complex. […] The entire contents of the crude reaction mixture was then transferred, loaded and purified using reverse phase HPLC and the following conditions: HPLC Column: Luna C18 250×10 Solvent A: 0.1% TFA in DI water; solvent B: 0.1% TFA in acetonitrile at a flow rate of 4.6 ml/minute using isocratic method 32% B while the UV was monitored at 280 nm. […]

The target of data set [2] is PD-L1 (Homo sapiens, UniProt Q9NZQ7). Kind of data set: In vitro differentiation of PD-L1-positive from PD-L1-negative cells (cell-associated radioactivity, gamma counter). The arrangement: PD-L1-positive L2987 human lung carcinoma cells or PD-L1-negative HT-29 human colorectal adenocarcinoma cells; endogenous in cells; host or cells: L2987 human lung carcinoma cells (HT-29 as PD-L1-negative control). The data set is classed as binding. The settings on record: 1 hour on ice. How it is done:
Portions of this solution were supplemented with either cold (unlabeled) […] or cold (unlabeled) […] (control) to a final concentration of 450 nM. […] After the incubation period, cell samples were centrifuged at 200×g and the supernatant was discarded. Cell pellets were resuspended in 1 mL PBS+0.5% BSA and the wash procedure repeated for a total of 3 washes. Following the final wash, cells were again centrifuged at 200×g and the supernatant was discarded. The radioactivity of the remaining cell pellets was then measured by gamma counter.

Data set [3] deals with PD-L1. The settings on record: cynomolgus monkeys. The procedure: Cynomolgus male monkeys with a previously installed vascular access port (VAP) were anesthetized with 0.02 mg/kg atropine, 5 mg/kg Telazol and 0.01 mg/kg buprenorphine I.M. (all drawn into a single syringe). An i.v. catheter is then placed in the cephalic vessel for fluid administration during the imaging procedure to maintain hydration. […] Anesthesia was maintained with isoflurane and oxygen and I.V. fluids (LRS) were administered at a rate of 6 ml/kg/hr during the imaging procedure. As the axial field of view of the microPET® F220™ instrument is only 7.6 cm, images over 5 distinct bed positions were acquired to create a composite image of the animals from just above the heart through approximately the pelvis.
For each field of view, a 10 minute transmission image was first acquired using a ^57Co point source for the purpose of attenuation correction of the final PET images. […] Once images were acquired at each position (1 through 5), the imaging bed was moved back to bed position 1 and the process was repeated. Using this procedure, a total of 5 distinct images were acquired for each bed position over the duration of the imaging study.
Individual images were reconstructed using a filtered back projection (FBP) algorithm with attenuation correction using the collected transmission images and corrected for radioisotope decay.

The values that follow come from US11229713B2, “Methods and compositions for 18F-radiolabeling of biologics” (BRISTOL-MYERS SQUIBB COMPANY, priority 2014, dated 2022).

PD-L1 (Homo sapiens, UniProt Q9NZQ7), sequence (Q9NZQ7 19-290): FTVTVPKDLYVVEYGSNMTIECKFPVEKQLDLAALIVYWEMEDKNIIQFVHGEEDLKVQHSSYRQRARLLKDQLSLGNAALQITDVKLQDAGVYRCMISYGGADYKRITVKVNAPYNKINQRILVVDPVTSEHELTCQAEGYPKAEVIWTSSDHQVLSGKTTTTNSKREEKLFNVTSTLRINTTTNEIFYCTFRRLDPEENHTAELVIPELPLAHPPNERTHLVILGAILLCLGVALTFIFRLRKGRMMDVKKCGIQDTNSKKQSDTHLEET

Turning to `[N-]=[N+]=NCCOCCOCCOCCOc1cccnc1[18F]` [[^18F]-3-(2-(2-(2-(2-azidoethoxy)ethoxy)ethoxy)ethoxy)-2-fluoropyridine], in data set [1], the “stable in this media” value was “over 1 hour”.

B1: ^18F-radiolabeled E01-4PEG-DBCO: E01 anti-PD-L1 Adnectin (SEQ ID NO: 1) linked via maleimide-PEG4-DBCO to [18F]-FPPEGA by click reaction (conjugate)
chain: GVSDVPRDLEVVAATPTSLLISWRAQLSPSFYYRITYGETGGNSPVQEFTVPNDVMTATISGLKPGVDYTITVYAVTTHGVYFYSPISINYRTPC
modifications: maleimide-PEG4-DBCO, 18F-FPPEGA label; Synthetic FBS protein, E01 Adnectin containing the C-terminal amino acids PC
Turning to B1, the “cell associated radioactivity in PD-L1-positive L2987 cells relative to PD-L1-negative HT-29 cells” value with PD-L1 [2] (300 nCi/200 μL tracer) was determined as 44.6 ×. Also, in the data set on PD-L1 [3] (PET), the “notable radiotracer accumulation (tissues)” value is “mainly in the kidneys, spleen, and bladder”. Further, in the data set with PD-L1 [3] (approx. 1.5 mCi (approx. 0.015 mg/kg) via VAP), the “background levels / background accumulation in PET images” value is on record as “very low”.

B2: E01 Adnectin: FBS protein, anti-PD-L1 Adnectin, SEQ ID NO: 1, cold (unlabeled) (protein)
chain: GVSDVPRDLEVVAATPTSLLISWRAQLSPSFYYRITYGETGGNSPVQEFTVPNDVMTATISGLKPGVDYTITVYAVTTHGVYFYSPISINYRTPC
modifications: Synthetic FBS protein, E01 Adnectin containing the C-terminal amino acids PC
Consider B2, for which, in the data set with PD-L1 [2] (450 nM cold (unlabeled) adnectin), the “reduction in cell-associated ^18F-radiolabeled E01-4PEG-DBCO on co-incubation with cold adnectin” value was 99.6%.
